T1: LINGO-Fc (human, UniProt Q96FE5 40-538, limits assumed)
T1 construct: not shown: Fc part
T1 sequence: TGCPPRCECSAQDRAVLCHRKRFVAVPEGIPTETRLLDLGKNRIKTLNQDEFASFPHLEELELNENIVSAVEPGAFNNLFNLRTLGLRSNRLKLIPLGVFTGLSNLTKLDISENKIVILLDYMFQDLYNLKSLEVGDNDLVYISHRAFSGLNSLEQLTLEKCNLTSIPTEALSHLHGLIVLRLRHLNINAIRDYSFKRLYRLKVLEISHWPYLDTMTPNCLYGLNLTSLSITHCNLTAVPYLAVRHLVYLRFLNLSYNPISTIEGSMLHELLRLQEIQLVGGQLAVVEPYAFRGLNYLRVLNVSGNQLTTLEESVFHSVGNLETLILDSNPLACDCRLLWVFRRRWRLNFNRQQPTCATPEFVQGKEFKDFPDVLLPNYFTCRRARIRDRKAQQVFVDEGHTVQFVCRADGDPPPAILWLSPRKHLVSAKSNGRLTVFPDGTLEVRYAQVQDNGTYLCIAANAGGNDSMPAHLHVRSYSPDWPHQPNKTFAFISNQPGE


Tests used:
LINGO-Fc [1] = molecular target: T1, LINGO-Fc; assay: direct ELISA on LINGO-Fc; OD450 at saturation relative to Li33;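 note: binding to plate-coated LINGO-Fc read by OD450, with the value at maximal saturation divided by the corresponding Li33 value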
Protocol: (§1) A direct binding ELISA assay was performed using LINGO-Fc coated plates. The half maximal concentration that gave 50% saturation of binding was measured and is reported as a ratio of the same measurement for Li33. In addition, the OD450 for maximal saturation value was measured and is reported as a ratio of the same measurement for Li33.

LINGO-Fc [2] = molecular target: T1, LINGO-Fc; assay: direct ELISA on LINGO-Fc; half-maximal concentration relative to Li33;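 note: direct binding ELISA on plates coated with LINGO-Fc, concentration giving half of saturating binding, expressed as a ratio to the same value for the comparator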
Protocol: as §1

| Plateau Ratio (LINGO-Fc [1]) [ratio] | ELISA Ratio (LINGO-Fc [2]) [ratio] | Binder |
| --- | --- | --- |
| 0.86 | 1.2 | Li33 variant W50F (SEQ ID NO:148) (antibody, V domains shown, unchanged chain from WT Li33) VH: EVQLLESGGGLVQPGGSLRLSCAASGFTFSIYPMFWVRQAPGKGLEWVSFIGPSGGITKYADSVKGRFTISRDNSKNTLYLQMNSLRAEDTATYYCAREGHNDWYFDLWGRGTLVTVSS VL: DIQMTQSPGTLSLSPGERATLSCRASQSVSSYLAWYQQKPGQAPRLLIYDASNRATGIPARFSGSGSGTEFTLTISSLQSEDFAVYYCQQYDKWPLTFGGGTKVEIKR |
| 0.91 | 0.1 | Li33 variant W104H (SEQ ID NO:156) (antibody, V domains shown, unchanged chain from WT Li33) VH: EVQLLESGGGLVQPGGSLRLSCAASGFTFSIYPMFWVRQAPGKGLEWVSWIGPSGGITKYADSVKGRFTISRDNSKNTLYLQMNSLRAEDTATYYCAREGHNDHYFDLWGRGTLVTVSS VL: DIQMTQSPGTLSLSPGERATLSCRASQSVSSYLAWYQQKPGQAPRLLIYDASNRATGIPARFSGSGSGTEFTLTISSLQSEDFAVYYCQQYDKWPLTFGGGTKVEIKR |
| 0.62 | 6.5 | Li33 variant W104I (SEQ ID NO:179) (antibody, V domains shown, unchanged chain from WT Li33) VH: EVQLLESGGGLVQPGGSLRLSCAASGFTFSIYPMFWVRQAPGKGLEWVSWIGPSGGITKYADSVKGRFTISRDNSKNTLYLQMNSLRAEDTATYYCAREGHNDIYFDLWGRGTLVTVSS VL: DIQMTQSPGTLSLSPGERATLSCRASQSVSSYLAWYQQKPGQAPRLLIYDASNRATGIPARFSGSGSGTEFTLTISSLQSEDFAVYYCQQYDKWPLTFGGGTKVEIKR |
| 0.91 | 1.6 | Li33 variant W94A (SEQ ID NO:165) (antibody, V domains shown, unchanged chain from WT Li33) VH: EVQLLESGGGLVQPGGSLRLSCAASGFTFSIYPMFWVRQAPGKGLEWVSWIGPSGGITKYADSVKGRFTISRDNSKNTLYLQMNSLRAEDTATYYCAREGHNDWYFDLWGRGTLVTVSS VL: DIQMTQSPGTLSLSPGERATLSCRASQSVSSYLAWYQQKPGQAPRLLIYDASNRATGIPARFSGSGSGTEFTLTISSLQSEDFAVYYCQQYDKAPLTFGGGTKVEIKR |
| 0.91 | 1.4 | Li33 variant W94V (SEQ ID NO:171) (antibody, V domains shown, unchanged chain from WT Li33) VH: EVQLLESGGGLVQPGGSLRLSCAASGFTFSIYPMFWVRQAPGKGLEWVSWIGPSGGITKYADSVKGRFTISRDNSKNTLYLQMNSLRAEDTATYYCAREGHNDWYFDLWGRGTLVTVSS VL: DIQMTQSPGTLSLSPGERATLSCRASQSVSSYLAWYQQKPGQAPRLLIYDASNRATGIPARFSGSGSGTEFTLTISSLQSEDFAVYYCQQYDKVPLTFGGGTKVEIKR |
| 0.87 | 1.3 | Li33 variant W50H (SEQ ID NO:147) (antibody, V domains shown, unchanged chain from WT Li33) VH: EVQLLESGGGLVQPGGSLRLSCAASGFTFSIYPMFWVRQAPGKGLEWVSHIGPSGGITKYADSVKGRFTISRDNSKNTLYLQMNSLRAEDTATYYCAREGHNDWYFDLWGRGTLVTVSS VL: DIQMTQSPGTLSLSPGERATLSCRASQSVSSYLAWYQQKPGQAPRLLIYDASNRATGIPARFSGSGSGTEFTLTISSLQSEDFAVYYCQQYDKWPLTFGGGTKVEIKR |
| 0.93 | 2 | Li33 variant W50M (SEQ ID NO:150) (antibody, V domains shown, unchanged chain from WT Li33) VH: EVQLLESGGGLVQPGGSLRLSCAASGFTFSIYPMFWVRQAPGKGLEWVSMIGPSGGITKYADSVKGRFTISRDNSKNTLYLQMNSLRAEDTATYYCAREGHNDWYFDLWGRGTLVTVSS VL: DIQMTQSPGTLSLSPGERATLSCRASQSVSSYLAWYQQKPGQAPRLLIYDASNRATGIPARFSGSGSGTEFTLTISSLQSEDFAVYYCQQYDKWPLTFGGGTKVEIKR |
| 0.87 | 1.5 | Li33 variant W94D (SEQ ID NO:166) (antibody, V domains shown, unchanged chain from WT Li33) VH: EVQLLESGGGLVQPGGSLRLSCAASGFTFSIYPMFWVRQAPGKGLEWVSWIGPSGGITKYADSVKGRFTISRDNSKNTLYLQMNSLRAEDTATYYCAREGHNDWYFDLWGRGTLVTVSS VL: DIQMTQSPGTLSLSPGERATLSCRASQSVSSYLAWYQQKPGQAPRLLIYDASNRATGIPARFSGSGSGTEFTLTISSLQSEDFAVYYCQQYDKDPLTFGGGTKVEIKR |
| 0.99 | 1.3 | Li33 variant W94S (SEQ ID NO:172) (antibody, V domains shown, unchanged chain from WT Li33) VH: EVQLLESGGGLVQPGGSLRLSCAASGFTFSIYPMFWVRQAPGKGLEWVSWIGPSGGITKYADSVKGRFTISRDNSKNTLYLQMNSLRAEDTATYYCAREGHNDWYFDLWGRGTLVTVSS VL: DIQMTQSPGTLSLSPGERATLSCRASQSVSSYLAWYQQKPGQAPRLLIYDASNRATGIPARFSGSGSGTEFTLTISSLQSEDFAVYYCQQYDKSPLTFGGGTKVEIKR |
| 1.05 | 0.8 | Li33 variant W94N (SEQ ID NO:168) (antibody, V domains shown, unchanged chain from WT Li33) VH: EVQLLESGGGLVQPGGSLRLSCAASGFTFSIYPMFWVRQAPGKGLEWVSWIGPSGGITKYADSVKGRFTISRDNSKNTLYLQMNSLRAEDTATYYCAREGHNDWYFDLWGRGTLVTVSS VL: DIQMTQSPGTLSLSPGERATLSCRASQSVSSYLAWYQQKPGQAPRLLIYDASNRATGIPARFSGSGSGTEFTLTISSLQSEDFAVYYCQQYDKNPLTFGGGTKVEIKR |
| 12.4 | 93.5 | Li33 variant W50I (SEQ ID NO:174) (antibody, V domains shown, unchanged chain from WT Li33) VH: EVQLLESGGGLVQPGGSLRLSCAASGFTFSIYPMFWVRQAPGKGLEWVSIIGPSGGITKYADSVKGRFTISRDNSKNTLYLQMNSLRAEDTATYYCAREGHNDWYFDLWGRGTLVTVSS VL: DIQMTQSPGTLSLSPGERATLSCRASQSVSSYLAWYQQKPGQAPRLLIYDASNRATGIPARFSGSGSGTEFTLTISSLQSEDFAVYYCQQYDKWPLTFGGGTKVEIKR |
| 1 | 1.8 | Li33 variant W50L (SEQ ID NO:149) (antibody, V domains shown, unchanged chain from WT Li33) VH: EVQLLESGGGLVQPGGSLRLSCAASGFTFSIYPMFWVRQAPGKGLEWVSLIGPSGGITKYADSVKGRFTISRDNSKNTLYLQMNSLRAEDTATYYCAREGHNDWYFDLWGRGTLVTVSS VL: DIQMTQSPGTLSLSPGERATLSCRASQSVSSYLAWYQQKPGQAPRLLIYDASNRATGIPARFSGSGSGTEFTLTISSLQSEDFAVYYCQQYDKWPLTFGGGTKVEIKR |
| 0.97 | 0.6 | Li33 variant W94L (SEQ ID NO:167) (antibody, V domains shown, unchanged chain from WT Li33) VH: EVQLLESGGGLVQPGGSLRLSCAASGFTFSIYPMFWVRQAPGKGLEWVSWIGPSGGITKYADSVKGRFTISRDNSKNTLYLQMNSLRAEDTATYYCAREGHNDWYFDLWGRGTLVTVSS VL: DIQMTQSPGTLSLSPGERATLSCRASQSVSSYLAWYQQKPGQAPRLLIYDASNRATGIPARFSGSGSGTEFTLTISSLQSEDFAVYYCQQYDKLPLTFGGGTKVEIKR |
| 1.03 | 0.9 | Li33 variant W94G (SEQ ID NO:169) (antibody, V domains shown, unchanged chain from WT Li33) VH: EVQLLESGGGLVQPGGSLRLSCAASGFTFSIYPMFWVRQAPGKGLEWVSWIGPSGGITKYADSVKGRFTISRDNSKNTLYLQMNSLRAEDTATYYCAREGHNDWYFDLWGRGTLVTVSS VL: DIQMTQSPGTLSLSPGERATLSCRASQSVSSYLAWYQQKPGQAPRLLIYDASNRATGIPARFSGSGSGTEFTLTISSLQSEDFAVYYCQQYDKGPLTFGGGTKVEIKR |
| 1.05 | 0.9 | Li33 variant W94Q (SEQ ID NO:170) (antibody, V domains shown, unchanged chain from WT Li33) VH: EVQLLESGGGLVQPGGSLRLSCAASGFTFSIYPMFWVRQAPGKGLEWVSWIGPSGGITKYADSVKGRFTISRDNSKNTLYLQMNSLRAEDTATYYCAREGHNDWYFDLWGRGTLVTVSS VL: DIQMTQSPGTLSLSPGERATLSCRASQSVSSYLAWYQQKPGQAPRLLIYDASNRATGIPARFSGSGSGTEFTLTISSLQSEDFAVYYCQQYDKQPLTFGGGTKVEIKR |
